Residue numbers refer to the chain shown, from its start. Numbers in names are those of the source.
B1: A14E, A21Q, A22(G)18, A40K^, B25H, B29R, desB30 human insulin/(227A, 234A, 235K hIgG4-Fc(228-447)) 4-[bis[2-[(2-acetyl)amino]ethyl]amino]-4-oxo-butanoyl … (other)
chain 1: GIVEQCCTSICSLEQLENYCQGGGGGGGGGGGGGGGGGGK
chain 2: FVNQHLCGSHLVEALYLVCGERGFHYTPR
chain 3: ASCPAPEAKGGPSVFLFPPKPKDTLMISRTPEVTCVVVDVSQEDPEVQFNWYVDGVEVHNAKTKPREEQFNSTYRVVSVLTVLHQDWLNGKEYKCKVSNKGLPSSIEKTISKAKGQPREPQVYTLPPSQEEMTKNQVSLTCLVKGFYPSDIAVEWESNGQPENNYKTTPPVLDSDGSFFLYSRLTVDKSRWQEGNVFSCSVMHEALHNHYTQKSLSLSLGK
modifications: Cys229 (EU numbering) sulphur bound to an acetyl arm of the linker; A40K N(eps) acylated by the trivalent linker 4-[bis[2-[(2-acetyl)amino]ethyl]amino]-4-oxo-butanoyl
notes: also called Ex 5.21
B2: A14E, A21G, A22(GQAPGQEP)6, A70K^, A71P, B25H, B29R, desB30 human insulin/(227A, 234A, 235K hIgG4-Fc(228-447)) … (other)
chain 1: GIVEQCCTSICSLEQLENYCGGQAPGQEPGQAPGQEPGQAPGQEPGQAPGQEPGQAPGQEPGQAPGQEPKP
chain 2: FVNQHLCGSHLVEALYLVCGERGFHYTPR
chain 3: B1 chain 3
modifications: Cys229 (EU numbering) sulphur bound to an acetyl arm of the linker; A70K N(eps) acylated by the trivalent linker 4-[bis[2-[(2-acetyl)amino]ethyl]amino]-4-oxo-butanoyl
notes: also called Ex 5.9
B3: (A14E, A21G, A22(GQAP)19, A98K^, A99P, B25H, B29R, desB30 human insulin)/(227A, 234A, 235K, 297E, 315Q, 384Q, des447 hIgG4-Fc(228-447)) … (other)
chain 1: GIVEQCCTSICSLEQLENYCGGQAPGQAPGQAPGQAPGQAPGQAPGQAPGQAPGQAPGQAPGQAPGQAPGQAPGQAPGQAPGQAPGQAPGQAPGQAPKP
chain 2: FVNQHLCGSHLVEALYLVCGERGFHYTPR
chain 3: ASCPAPEAKGGPSVFLFPPKPKDTLMISRTPEVTCVVVDVSQEDPEVQFNWYVDGVEVHNAKTKPREEQFESTYRVVSVLTVLHQDWLQGKEYKCKVSNKGLPSSIEKTISKAKGQPREPQVYTLPPSQEEMTKNQVSLTCLVKGFYPSDIAVEWESQGQPENNYKTTPPVLDSDGSFFLYSRLTVDKSRWQEGNVFSCSVMHEALHNHYTQKSLSLSLG
modifications: Cys229 (EU numbering) sulphur bound to an acetyl arm of the linker; A98K N(eps) acylated by the trivalent linker 4-[bis[2-[(2-acetyl)amino]ethyl]amino]-4-oxo-butanoyl
notes: also called Ex 5.15
B4: A14E, A21G, A22(GQAPGQAPGQEP)6-GQAP, A98K^, A99P, B3Q, B25H, B29R, desB30 human insulin/(227A, 234A, 235K, 297E, 315Q, 384Q, des447 hIgG4-Fc(228-447)) … (other)
chain 1: B3 chain 1 with A32E, A44E, A56E, A68E, A80E, A92E
chain 2: FVQQHLCGSHLVEALYLVCGERGFHYTPR
chain 3: B3 chain 3
modifications: Cys229 (EU numbering) sulphur bound to an acetyl arm of the linker; A98K N(eps) acylated by the trivalent linker 4-[bis[2-[(2-acetyl)amino]ethyl]amino]-4-oxo-butanoyl
notes: also called Ex 5.13
B5: A14E, A21G, A22(GQAPGQAPGQEP)6-GQAP, A98K^, A99P, B3Q, B25H, B29R, desB30 human insulin/(227A, 234A, 235K, 297E, 315Q, 384Q, des447 hIgG4-Fc(228-447)) … (other)
chain 1: B3 chain 1 with A32E, A44E, A56E, A68E, A80E, A92E
chain 2: FVQQHLCGSHLVEALYLVCGERGFHYTPR
chain 3: B3 chain 3
modifications: Cys229 (EU numbering) sulphur bound to an acetyl arm of the linker; A98K N(eps) acylated by the trivalent linker 4-[bis[2-[(2-acetyl)amino]ethyl]carbamoylamino]butanoyl
notes: also called Ex 5.24
B6: A14E, A21G, A22(GQAPGQAPGQEP)6-GQAP, A98K^, A99P, B29R, desB30 human insulin/(227A, 234A, 235K, 297E, 315Q, 384Q, des447 hIgG4-Fc(228-447)) … (other)
chain 1: B3 chain 1 with A32E, A44E, A56E, A68E, A80E, A92E
chain 2: FVNQHLCGSHLVEALYLVCGERGFFYTPR
chain 3: B3 chain 3
modifications: Cys229 (EU numbering) sulphur bound to an acetyl arm of the linker; A98K N(eps) acylated by the trivalent linker 4-[bis[2-[(2-acetyl)amino]ethyl]amino]-4-oxo-butanoyl
B7: A14E, A21G, A22(GQEP)19, A98K^, A99P, B3Q, B25H, B29R, desB30 human insulin/(227A, 234A, 235K, 297E, 315Q, 384Q, des447 hIgG4-Fc(228-447)) … (other)
chain 1: GIVEQCCTSICSLEQLENYCGGQEPGQEPGQEPGQEPGQEPGQEPGQEPGQEPGQEPGQEPGQEPGQEPGQEPGQEPGQEPGQEPGQEPGQEPGQEPKP
chain 2: FVQQHLCGSHLVEALYLVCGERGFHYTPR
chain 3: B3 chain 3
modifications: Cys229 (EU numbering) sulphur bound to an acetyl arm of the linker; A98K N(eps) acylated by the trivalent linker 4-[bis[2-[(2-acetyl)amino]ethyl]amino]-4-oxo-butanoyl
notes: also called Ex 5.2
B8: (A14E, A21G, A22(GQEP)19, A98K^, A99P, B25H, B29R, desB30 human insulin)/(227A, 234A, 235K, 297E, 315Q, 384Q, des447 hIgG4-Fc(228-447)) … (other)
chain 1: B7 chain 1
chain 2: FVNQHLCGSHLVEALYLVCGERGFHYTPR
chain 3: B3 chain 3
modifications: Cys229 (EU numbering) sulphur bound to an acetyl arm of the linker; A98K N(eps) acylated by the trivalent linker 4-[bis[2-[(2-acetyl)amino]ethyl]amino]-4-oxo-butanoyl
notes: also called Ex 5.12
B9: A14E, A21G, A22(GQAPGQEP)6, A70K^, A71P, B25H, B29R, desB30 human insulin/(227A, 234A, 235K, 297E, 315Q, 384Q, des447 hIgG4-Fc(228-447)) … (other)
chain 1: B2 chain 1
chain 2: FVNQHLCGSHLVEALYLVCGERGFHYTPR
chain 3: B3 chain 3
modifications: Cys229 (EU numbering) sulphur bound to an acetyl arm of the linker; A70K N(eps) acylated by the trivalent linker 4-[bis[2-[(2-acetyl)amino]ethyl]amino]-4-oxo-butanoyl
notes: also called Ex 5.14
B10: A14E, A21G, A22(GQEP)12, A70K^, A71P, B25H, B29R, desB30 human insulin/(227A, 234A, 235K, 297E, 315Q, 384Q, des447 hIgG4-Fc(228-447)) … (other)
chain 1: B2 chain 1 with A24E, A32E, A40E, A48E, A56E, A64E
chain 2: FVNQHLCGSHLVEALYLVCGERGFHYTPR
chain 3: B3 chain 3
modifications: Cys229 (EU numbering) sulphur bound to an acetyl arm of the linker; A70K N(eps) acylated by the trivalent linker 4-[bis[2-[(2-acetyl)amino]ethyl]amino]-4-oxo-butanoyl
notes: also called Ex 5.17
B11: (A14E, A21G, A22(GQAP)19, A98K^, A99P, B25H, B29R, desB30 human insulin)/(227A, 234A, 235K, 297E, 315Q, 384Q, des447 hIgG4-Fc(228-447)) … (other)
chain 1: B3 chain 1
chain 2: FVNQHLCGSHLVEALYLVCGERGFHYTPR
chain 3: B3 chain 3
modifications: Cys229 (EU numbering) sulphur bound to an acetyl arm of the linker; A98K N(eps) acylated by the trivalent linker 6-[bis[2-[(2-acetyl)amino]ethyl]amino]-6-oxo-hexanoyl
notes: also called Ex 5.16

Biological target: insulin receptor A (UniProt P06213-2 28-1370, limits assumed)
Assay: insulin receptor binding assay as in Vienberg et al. 2011; relative to human insulin on insulin receptor A (100%)

insulin receptor A, sequence (P06213 other isoform, or with tags, fused parts or gaps limits assumed): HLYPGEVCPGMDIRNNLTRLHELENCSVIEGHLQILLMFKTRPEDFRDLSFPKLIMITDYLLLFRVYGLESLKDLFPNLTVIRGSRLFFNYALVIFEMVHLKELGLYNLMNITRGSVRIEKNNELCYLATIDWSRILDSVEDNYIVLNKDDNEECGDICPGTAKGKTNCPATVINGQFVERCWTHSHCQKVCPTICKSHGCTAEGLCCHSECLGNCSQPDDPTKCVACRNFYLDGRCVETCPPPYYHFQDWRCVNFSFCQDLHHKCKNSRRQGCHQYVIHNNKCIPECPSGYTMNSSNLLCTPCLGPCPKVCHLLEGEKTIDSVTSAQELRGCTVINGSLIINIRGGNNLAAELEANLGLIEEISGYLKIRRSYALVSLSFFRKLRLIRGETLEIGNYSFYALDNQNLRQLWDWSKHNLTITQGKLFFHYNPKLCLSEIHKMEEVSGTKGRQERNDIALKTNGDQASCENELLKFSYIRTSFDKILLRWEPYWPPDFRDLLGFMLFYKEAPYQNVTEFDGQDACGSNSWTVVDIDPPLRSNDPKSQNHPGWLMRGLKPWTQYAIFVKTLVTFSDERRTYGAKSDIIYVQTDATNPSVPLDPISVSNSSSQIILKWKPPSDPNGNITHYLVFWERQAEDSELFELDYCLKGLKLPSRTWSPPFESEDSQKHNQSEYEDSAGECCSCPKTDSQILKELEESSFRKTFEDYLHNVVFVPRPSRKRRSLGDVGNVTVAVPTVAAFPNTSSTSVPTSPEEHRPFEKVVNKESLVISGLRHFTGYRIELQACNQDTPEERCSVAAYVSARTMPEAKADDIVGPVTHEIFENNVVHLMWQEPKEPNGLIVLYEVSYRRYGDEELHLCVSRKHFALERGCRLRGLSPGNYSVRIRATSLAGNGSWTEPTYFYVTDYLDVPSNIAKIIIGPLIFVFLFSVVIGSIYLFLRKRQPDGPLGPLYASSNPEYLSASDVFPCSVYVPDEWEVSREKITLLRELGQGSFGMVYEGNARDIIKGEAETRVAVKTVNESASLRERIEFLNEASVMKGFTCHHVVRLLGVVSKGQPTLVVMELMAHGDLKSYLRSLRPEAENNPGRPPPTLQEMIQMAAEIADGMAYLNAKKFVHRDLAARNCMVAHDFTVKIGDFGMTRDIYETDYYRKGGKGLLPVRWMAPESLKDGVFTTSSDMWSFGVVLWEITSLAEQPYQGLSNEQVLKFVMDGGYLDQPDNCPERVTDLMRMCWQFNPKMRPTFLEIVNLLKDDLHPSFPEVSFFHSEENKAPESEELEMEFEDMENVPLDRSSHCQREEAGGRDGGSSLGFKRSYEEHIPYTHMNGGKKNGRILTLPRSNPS

Binder	Insulin receptor affinity [IC50 relative to HI (%)] [%]
B1	2.1
B2	2.96
B3	3.68
B4	5.55
B5	4.6
B6	4
B7	6.1
B8	1.85
B9	5.37
B10	3.98
B11	3.86

Biological target: insulin receptor of isolated rat adipocytes (rat, UniProt P15127 27-1383)
Assay: cell-based or functional assay

insulin receptor of isolated rat adipocytes, sequence (P15127 27-1383): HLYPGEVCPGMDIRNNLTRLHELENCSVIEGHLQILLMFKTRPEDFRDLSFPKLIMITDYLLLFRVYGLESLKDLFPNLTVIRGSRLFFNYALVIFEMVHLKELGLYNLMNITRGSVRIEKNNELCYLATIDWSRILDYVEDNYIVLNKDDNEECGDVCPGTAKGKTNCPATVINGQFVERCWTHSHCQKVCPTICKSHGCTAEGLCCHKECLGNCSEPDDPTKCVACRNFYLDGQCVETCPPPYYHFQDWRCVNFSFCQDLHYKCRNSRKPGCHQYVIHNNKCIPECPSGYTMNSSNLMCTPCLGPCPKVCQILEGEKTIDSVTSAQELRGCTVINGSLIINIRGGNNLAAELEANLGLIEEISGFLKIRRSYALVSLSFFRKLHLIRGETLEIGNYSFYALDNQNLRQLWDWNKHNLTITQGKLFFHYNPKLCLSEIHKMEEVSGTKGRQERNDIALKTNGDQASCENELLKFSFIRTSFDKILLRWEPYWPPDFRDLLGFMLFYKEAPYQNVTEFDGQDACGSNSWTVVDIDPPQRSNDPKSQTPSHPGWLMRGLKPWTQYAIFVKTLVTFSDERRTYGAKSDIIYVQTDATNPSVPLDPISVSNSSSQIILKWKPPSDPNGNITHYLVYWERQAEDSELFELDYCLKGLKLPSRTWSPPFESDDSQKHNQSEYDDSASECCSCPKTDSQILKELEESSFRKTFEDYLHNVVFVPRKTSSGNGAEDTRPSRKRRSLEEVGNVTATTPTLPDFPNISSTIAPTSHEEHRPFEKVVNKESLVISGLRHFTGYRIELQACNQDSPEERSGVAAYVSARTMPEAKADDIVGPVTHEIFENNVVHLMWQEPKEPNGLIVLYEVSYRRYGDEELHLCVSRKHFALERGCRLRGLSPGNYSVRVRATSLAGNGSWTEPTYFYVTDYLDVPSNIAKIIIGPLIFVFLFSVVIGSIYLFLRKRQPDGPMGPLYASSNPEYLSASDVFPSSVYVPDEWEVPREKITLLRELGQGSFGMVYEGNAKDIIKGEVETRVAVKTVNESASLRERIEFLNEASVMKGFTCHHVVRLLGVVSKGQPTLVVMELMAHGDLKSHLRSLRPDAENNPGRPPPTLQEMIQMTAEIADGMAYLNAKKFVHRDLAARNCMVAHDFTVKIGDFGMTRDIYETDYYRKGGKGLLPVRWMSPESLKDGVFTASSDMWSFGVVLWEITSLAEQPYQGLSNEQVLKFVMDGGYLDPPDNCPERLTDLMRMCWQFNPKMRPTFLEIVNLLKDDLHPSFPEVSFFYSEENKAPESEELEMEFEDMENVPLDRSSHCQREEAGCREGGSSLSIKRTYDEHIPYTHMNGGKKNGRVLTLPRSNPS

Binder	Lipogenesis in rat adipocytes [Potency (%)] Mean Value
B1	0.95 % of human insulin
B2	3.02 % of human insulin
B3	3.68 % of human insulin
B4	3.07 % of human insulin
B5	3.83 % of human insulin
B6	3.02 % of human insulin
B7	3.57 % of human insulin
B8	2.35 % of human insulin
B9	4.86 % of human insulin
B10	4.39 % of human insulin
B11	4.34 % of human insulin

Reference: patent publication US20200261595A1 (Novo Nordisk, published 2020)
